{
  "source": "patent US7662583B2",
  "about": "“Bioreactor containing cells expressing glycosyltransferase nucleic acids isolatable from Arabidopsis” (The University of York, priority 2003, dated 2010)",
  "molecules": {"B1": {"name": "UGT71C2: Arabidopsis recombinant glycosyltransferase (protein, UniProt O82382 1-474, looked up)", "UDP-glycosyltransferase 71C2": "MAKQQEAELIFIPFPIPGHILATIELAKRLISHQPSRIHTITILHWSLPFLPQSDTIAFLKSLIETESRIRLITLPDVQNPPPMELFVKASESYILEYVKKMVPLVRNALSTLLSSRDESDSVHVAGLVLDFFCVPLIDVGNEFNLPSYIFLTCSASFLGMMKYLLERNRETKPELNRSSDEETISVPGFVNSVPVKVLPPGLFTTESYEAWVEMAERFPEAKGILVNSFESLERNAFDYFDRRPDNYPPVYPIGPILCSNDRPNLDLSERDRILKWLDDQPESSVVFLCFGSLKSLAASQIKEIAQALELVGIRFLWSIRTDPKEYASPNEILPDGFMNRVMGLGLVCGWAPQVEILAHKAIGGFVSHCGWNSILESLRFGVPIATWPMYAEQQLNAFTIVKELGLALEMRLDYVSEYGEIVKADEIAGAVRSLMDGEDVPRRKLKEIAEAGKEAVMDGGSSFVAVKRFIDGL"}, "B2": {"name": "UGT71E8: Arabidopsis recombinant glycosyltransferase as printed in Table 1A; probably UGT71B8 of FIG. 1 (protein, UniProt Q9LSY4 1-480, looked up)", "UDP-glycosyltransferase 71B8": "MNKFALVFVPFPILGHLKSTAEMAKLLVEQETRLSISIIILPLLSGDDVSASAYISALSAASNDRLHYEVISDGDQPTVGLHVDNHIPMVKRTVAKLVDDYSRRPDSPRLAGLVVDMFCISVIDVANEVSVPCYLFYTSNVGILALGLHIQMLFDKKEYSVSETDFEDSEVVLDVPSLTCPYPVKCLPYGLATKEWLPMYLNQGRRFREMKGILVNTFAELEPYALESLHSSGDTPRAYPVGPLLHLENHVDGSKDEKGSDILRWLDEQPPKSVVFLCFGSIGGFNEEQAREMAIALERSGHRFLWSLRRASRDIDKELPGEFKNLEEILPEGFFDRTKDKGKVIGWAPQVAVLAKPAIGGFVTHCGWNSILESLWFGVPIAPWPLYAEQKFNAFVMVEELGLAVKIRKYWRGDQLVGTATVIVTAEEIERGIRCLMEQDSDVRNRVKEMSKKCHMALKDGGSSQSALKLFIQDVTKYIA"}, "B3": {"name": "UGT76E1: Arabidopsis recombinant glycosyltransferase (protein, UniProt Q9LTH3 1-453, looked up)", "UDP-glycosyltransferase 76E1": "MEELGVKRRIVLVPVPAQGHVTPIMQLGKALYSKGFSITVVLTQYNRVSSSKDFSDFHFLTIPGSLTESDLKNLGPFKFLFKLNQICEASFKQCIGQLLQEQGNDIACVVYDEYMYFSQAAVKEFQLPSVLFSTTSATAFVCRSVLSRVNAESFLLDMKDPKVSDKEFPGLHPLRYKDLPTSAFGPLESILKVYSETVNIRTASAVIINSTSCLESSSLAWLQKQLQVPVYPIGPLHIAASAPSSLLEEDRSCLEWLNKQKIGSVIYISLGSLALMETKDMLEMAWGLRNSNQPFLWVIRPGSIPGSEWTESLPEEFSRLVSERGYIVKWAPQIEVLRHPAVGGFWSHCGWNSTLESIGEGVPMICRPFTGDQKVNARYLERVWRIGVQLEGELDKGTVERAVERLIMDEEGAEMRKRVINLKEKLQASVKSRGSSFSSLDNFVNSLKMMNFM"}, "B4": {"name": "UGT76E11: Arabidopsis recombinant glycosyltransferase (protein, UniProt Q9SNB1 1-451, looked up)", "UDP-glycosyltransferase 76E11": "MEEKPAGRRVVLVAVPAQGHISPIMQLAKTLHLKGFSITIAQTKFNYFSPSDDFTDFQFVTIPESLPESDFEDLGPIEFLHKLNKECQVSFKDCLGQLLLQQGNEIACVVYDEFMYFAEAAAKEFKLPNVIFSTTSATAFVCRSAFDKLYANSILTPLKEPKGQQNELVPEFHPLRCKDFPVSHWASLESMMELYRNTVDKRTASSVIINTASCLESSSLSRLQQQLQIPVYPIGPLHLVASASTSLLEENKSCIEWLNKQKKNSVIFVSLGSLALMEINEVIETALGLDSSKQQFLWVIRPGSVRGSEWIENLPKEFSKIISGRGYIVKWAPQKEVLSHPAVGGFWSHCGWNSTLESIGEGVPMICKPFSSDQMVNARYLECVWKIGIQVEGDLDRGAVERAVRRLMVEEEGEGMRKRAISLKEQLRASVISGGSSHNSLEEFVHYMRTL"}, "B5": {"name": "UGT73C6: Arabidopsis recombinant glycosyltransferase (protein, UniProt Q9ZQ95 1-495, looked up)", "UDP-glycosyltransferase 73C6": "MAFEKNNEPFPLHFVLFPFMAQGHMIPMVDIARLLAQRGVLITIVTTPHNAARFKNVLNRAIESGLPINLVQVKFPYQEAGLQEGQENMDLLTTMEQITSFFKAVNLLKEPVQNLIEEMSPRPSCLISDMCLSYTSEIAKKFKIPKILFHGMGCFCLLCVNVLRKNREILDNLKSDKEYFIVPYFPDRVEFTRPQVPVETYVPAGWKEILEDMVEADKTSYGVIVNSFQELEPAYAKDFKEARSGKAWTIGPVSLCNKVGVDKAERGNKSDIDQDECLEWLDSKEPGSVLYVCLGSICNLPLSQLLELGLGLEESQRPFIWVIRGWEKYKELVEWFSESGFEDRIQDRGLLIKGWSPQMLILSHPSVGGFLTHCGWNSTLEGITAGLPMLTWPLFADQFCNEKLVVQILKVGVSAEVKEVMKWGEEEKIGVLVDKEGVKKAVEELMGESDDAKERRRRAKELGESAHKAVEEGGSSHSNITFLLQDIMQLAQSNN"}, "B6": {"name": "UGT76E2: Arabidopsis recombinant glycosyltransferase, FIG. 8 (protein, listed as Arabidopsis thaliana)", "chain": "MEEKQVKETRIVLVPVPAQGHVTPMMQLGKALHSKGFSITVVLTQSNRVSSSKDFSDFHFLTIPGSLTESDLQNLGPQKFVLKLNQICEASFKQCIGQLLHEQCNNDIACVVYDEYMYFSHAAVKEFQLPSVVFSTTSATAFVCRSVLSRVNAESFLIDMKDPETQDKVFPGLHPLRYKDLPTSVFGPIESTLKVYSETVNTRTASAVIINSASCLESSSLARLQQQLQVPVYPIGPLHITASAPSSLLEEDRSCVEWLNKQKSNSVIYISLGSLALMDTKDMLEMAWGLSNSNQPFLWVVRPGSIPGSEWTESLPEEFNRLVSERGYIVKWAPQMEVLRHPAVGGFWSHCGWNSTVESIGEGVPMICRPFTGDQKVNARYLERVWRIGVQLEGDLDKETVERAVEWLLVDEEGAEMRKRAIDLKEKIETSVRSGGSSCSSLDDFVNSM"}, "B7": {"name": "UGT88A1: Arabidopsis recombinant glycosyltransferase, FIG. 4 (protein, listed as Arabidopsis thaliana)", "chain": "MGEEAIVLYPAPPIGHLVSMVELGKTILSKNPSLSIHIILVPPPYQPESTATYISSVSSSFPSITFHHLPAVTPYSSSSTSRHHHESLLLEILCFSNPSVHRTLFSLSRNFNVRAMIIDFFCTAVLDITADFTFPVYFFYTSGAACLAFSFYLPTIDETTPGKNLKDIPTVHIPGVPPMKGSDMPKAVLERDDEVYDVFIMFGKQLSKSSGIIINTFDALENRAIKAITEELCFRNIYPIGPLIVNGRIEDRNDNKAVSCLNWLDSQPEKSVVFLCFGSLGLFSKEQVIEIAVGLEKSGQRFLWVVRNPPELEKTELDLKSLLPEGFLSRTEDKGMVVKSWAPQVPVLNHKAVGGFVTHCGWNSILEAVCAGVPMVAWPLYAEQRFNRVMIVDEIKIAISMNESETGFVSSTEVEKRVQEIIGECPVRERTMAMKNAAELALTETGSSHTALTTLLQSWSPK"}},
  "data": [
    {"assay": "UGT enzyme reaction with quercetin (recombinant UGTs, HPLC)", "assay_type": "biochemical, Arabidopsis", "settings": "quercetin glucosylated at 3-OH; 0.5 mM quercetin, 5 mM UDP-glucose, 30° C.", "protocol": "(§1) The assay mix (200 μl) contained 2 μg of recombinant protein, 100 mM Tris-HCl, pH 7.0, 5 mM UDP-glucose 1.4 mM 2-mercaptoethanol, and 0.5 mM of quercetin. The reaction was carried out at 30° C. for 1 h, and was quick-frozen and stored at −20° C. prior to the reverse-phase HPLC analysis\n(§2) Reverse-phase HPLC (SpectraSYSTEM HPLC systems and UV6000LP Photodiode Array Detector, ThermoQuest) analysis was carried using a Columbus 5μ C18 column (250×4.60 mm, PHENOMENEX). Quercetin glucosides were separated from the aglycone by a linear gradient of 10-75% acetonitrile in H2O (all solution contained 0.1% trifluoroacetic acid) at 1 ml/mm over 20 mm and monitored at 370 nm. Cytokinin glucosides were separated from their aglycone by a liner gradient of 10-100% methanol in H2O (for N6-isopentenyladenine (iP), N6-benzyladenine and kinetin) or 10-60% methanol in H2O (for trans-zeatin and dihydrozeatin) at 1 ml/min over 20 mm. All solution contained 0.25% acetic acid and 0.04% triethylamine, trifluoroacetic acid. The separation was monitored at 206 nm and 252 nm. The identity of the products was confirmed by comparison with authentic gluco sides.\n(§3) The activity of Arabidopsis recombinant UGTs towards quercetin was determined using the platform developed previously^15.", "units": {"Specific activity (nkat/mg protein) 3-O-glc": "nkat/mg protein"}, "values": [
      {"molecule": "B1", "Specific activity (nkat/mg protein) 3-O-glc": 0.16},
      {"molecule": "B2", "Specific activity (nkat/mg protein) 3-O-glc": 0.31},
      {"molecule": "B3", "Specific activity (nkat/mg protein) 3-O-glc": 0.02},
      {"molecule": "B4", "Specific activity (nkat/mg protein) 3-O-glc": 0.08},
      {"molecule": "B5", "Specific activity (nkat/mg protein) 3-O-glc": 0.11},
      {"molecule": "B6", "Specific activity (nkat/mg protein) 3-O-glc": 0.17},
      {"molecule": "B7", "Specific activity (nkat/mg protein) 3-O-glc": 0.41}
    ]},
    {"assay": "UGT enzyme reaction with quercetin (recombinant UGTs, HPLC)", "assay_type": "biochemical, Arabidopsis", "settings": "quercetin glucosylated at 3′-OH; 0.5 mM quercetin, 5 mM UDP-glucose, 30° C.", "protocol": "as §1, §2, §3", "values": [
      {"molecule": "B1", "Specific activity (nkat/mg protein) 3′-O-glc": "0.03 nkat/mg protein"},
      {"molecule": "B2", "Specific activity (nkat/mg protein) 3′-O-glc": "— (Activity lower than 0.02 nkat/mg protein has been considered as trace activity and is not shown in the Table.)"},
      {"molecule": "B3", "Specific activity (nkat/mg protein) 3′-O-glc": "— (Activity lower than 0.02 nkat/mg protein has been considered as trace activity and is not shown in the Table.)"},
      {"molecule": "B4", "Specific activity (nkat/mg protein) 3′-O-glc": "— (Activity lower than 0.02 nkat/mg protein has been considered as trace activity and is not shown in the Table.)"},
      {"molecule": "B5", "Specific activity (nkat/mg protein) 3′-O-glc": "— (Activity lower than 0.02 nkat/mg protein has been considered as trace activity and is not shown in the Table.)"},
      {"molecule": "B6", "Specific activity (nkat/mg protein) 3′-O-glc": "— (Activity lower than 0.02 nkat/mg protein has been considered as trace activity and is not shown in the Table.)"},
      {"molecule": "B7", "Specific activity (nkat/mg protein) 3′-O-glc": "0.19 nkat/mg protein"}
    ]},
    {"assay": "UGT enzyme reaction with quercetin (recombinant UGTs, HPLC)", "assay_type": "biochemical, Arabidopsis", "settings": "quercetin glucosylated at 4′-OH; 0.5 mM quercetin, 5 mM UDP-glucose, 30° C.", "protocol": "as §1, §2, §3", "values": [
      {"molecule": "B1", "Specific activity (nkat/mg protein) 4′-O-glc": "— (Activity lower than 0.02 nkat/mg protein has been considered as trace activity and is not shown in the Table.)"},
      {"molecule": "B2", "Specific activity (nkat/mg protein) 4′-O-glc": "0.25 nkat/mg protein"},
      {"molecule": "B3", "Specific activity (nkat/mg protein) 4′-O-glc": "— (Activity lower than 0.02 nkat/mg protein has been considered as trace activity and is not shown in the Table.)"},
      {"molecule": "B4", "Specific activity (nkat/mg protein) 4′-O-glc": "— (Activity lower than 0.02 nkat/mg protein has been considered as trace activity and is not shown in the Table.)"},
      {"molecule": "B5", "Specific activity (nkat/mg protein) 4′-O-glc": "0.16 nkat/mg protein"},
      {"molecule": "B6", "Specific activity (nkat/mg protein) 4′-O-glc": "— (Activity lower than 0.02 nkat/mg protein has been considered as trace activity and is not shown in the Table.)"},
      {"molecule": "B7", "Specific activity (nkat/mg protein) 4′-O-glc": "0.76 nkat/mg protein"}
    ]},
    {"assay": "UGT enzyme reaction with quercetin (recombinant UGTs, HPLC)", "assay_type": "biochemical, Arabidopsis", "settings": "quercetin glucosylated at 7-OH; 0.5 mM quercetin, 5 mM UDP-glucose, 30° C.", "protocol": "as §1, §2, §3", "values": [
      {"molecule": "B1", "Specific activity (nkat/mg protein) 7-O-glc": "0.24 nkat/mg protein"},
      {"molecule": "B2", "Specific activity (nkat/mg protein) 7-O-glc": "— (Activity lower than 0.02 nkat/mg protein has been considered as trace activity and is not shown in the Table.)"},
      {"molecule": "B3", "Specific activity (nkat/mg protein) 7-O-glc": "0.08 nkat/mg protein"},
      {"molecule": "B4", "Specific activity (nkat/mg protein) 7-O-glc": "0.12 nkat/mg protein"},
      {"molecule": "B5", "Specific activity (nkat/mg protein) 7-O-glc": "0.14 nkat/mg protein"},
      {"molecule": "B6", "Specific activity (nkat/mg protein) 7-O-glc": "0.21 nkat/mg protein"},
      {"molecule": "B7", "Specific activity (nkat/mg protein) 7-O-glc": "0.19 nkat/mg protein"}
    ]}
  ]
}
